Reference: patent publication US20230357429A1 (JANUX THERAPEUTICS, published 2023)
Changes are numbered by the printed parent chain. Names and notes keep the numbering of the source. Where no end group is shown, it is not given here.

B1: PC-9 (bispecific antibody)
light: not shown
heavy: GGVDFCGLYHWPICYQGGGGSGGLSGRSDAGSPLGLAGSGGSQVQLQQSGSELKKPGASVKVSCKASGYTFTNYGMNWVKQAPGQGLKWMGWINTYTGEPTYTDDFKGRFAFSLDTSVSTAYLQISSLKADDTAVYFCARGGFGSSYWYFAVWGQGSLVTVSSASTKGPSVFPLAPSSKSTSGGTAALGCLVKDYFPEPVTVSWNSGALTSGVHTFPAVLQSSGLYSLSSVVTVPSSSLGTQTYICNVNHKPSNTKVDKKVEPKSC
notes: anti-TROP2 D109A
B2: PC-10 (bispecific antibody)
light: GGVDFCGLYHWPICYQGGGGSSGGSAAGLLAPPGGLSGRSDAGGGGSDIQLTQSPSSLSASVGDRVSITCKASQDVSIAVAWYQQKPGKAPKLLIYSASYRYTGVPDRFSGSGSGTDFTLTISSLQPEDFAVYYCQQHYITPLTFGAGTKVEIKRTVAAPSVFIFPPSDEQLKSGTASVVCLLNNFYPREAKVQWKVDNALQSGNSQESVTEQDSKDSTYSLSSTLTLSKADYEKHKVYACEVTHQGLSSPVTKSFNRGEC
heavy: not shown
notes: anti-TROP2 D109A
B3: PC-11 (bispecific antibody)
light: not shown
heavy: GGVDFCGLYHWPICYQGGGGSSGGSAAGLLAPPGGLSGRSDAGGGGSQVQLQQSGSELKKPGASVKVSCKASGYTFTNYGMNWVKQAPGQGLKWMGWINTYTGEPTYTDDFKGRFAFSLDTSVSTAYLQISSLKADDTAVYFCARGGFGSSYWYFAVWGQGSLVTVSSASTKGPSVFPLAPSSKSTSGGTAALGCLVKDYFPEPVTVSWNSGALTSGVHTFPAVLQSSGLYSLSSVVTVPSSSLGTQTYICNVNHKPSNTKVDKKVEPKSC
notes: anti-TROP2 D109A
B4: TBD-2 (anti-TROP2 Fab, LC Q89A) (Fab, V domains shown)
VH: QVQLQQSGSELKKPGASVKVSCKASGYTFTNYGMNWVKQAPGQGLKWMGWINTYTGEPTYTDDFKGRFAFSLDTSVSTAYLQISSLKADDTAVYFCARGGFGSSYWYFDVWGQGSLVTVSS
VL: DIQLTQSPSSLSASVGDRVSITCKASQDVSIAVAWYQQKPGKAPKLLIYSASYRYTGVPDRFSGSGSGTDFTLTISSLQPEDFAVYYCAQHYITPLTFGAGTKVEIKR
B5: TBD-3 (anti-TROP2 Fab, LC Q90A) (Fab, V domains shown)
VH: B4 VH
VL: B4 VL with A89Q, Q90A
B6: TBD-6 (anti-TROP2 Fab, LC I93A) (Fab, V domains shown)
VH: B4 VH
VL: B4 VL with A89Q, I93A
notes: also called TBD-6 (LC I93A mutant)
B7: TBD-7 (anti-TROP2 Fab, LC T94A) (Fab, V domains shown)
VH: B4 VH
VL: B4 VL with A89Q, T94A
B8: TBD-8 (anti-TROP2 Fab, LC P95A) (Fab, V domains shown)
VH: B4 VH
VL: B4 VL with A89Q, P95A
B9: TBD-9 (anti-TROP2 Fab, LC L96A) (Fab, V domains shown)
VH: B4 VH
VL: B4 VL with A89Q, L96A
B10: TBD-10 (anti-TROP2 Fab, LC T97A) (Fab, V domains shown)
VH: B4 VH
VL: B4 VL with A89Q, T97A
B11: TBD-19 (anti-TROP2 Fab, HC W106A) (Fab, V domains shown)
VH: B4 VH with W106A
VL: B4 VL with A89Q
B12: Peptide-66 (peptide)
peptide: GSQCLGPEWEVCPY
modifications: cysteine pairing not given here; also: biotinylated, site not given here
notes: mask peptide for the CD3 scFv
B13: Peptide-74 (peptide)
peptide: ASQCLGPEWEVCPY
modifications: cysteine pairing not given here; also: biotinylated, site not given here
notes: mask peptide for the CD3 scFv
B14: Peptide-75 (peptide)
peptide: GSACLGPEWEVCPY
modifications: cysteine pairing not given here; also: biotinylated, site not given here
notes: mask peptide for the CD3 scFv
B15: Peptide-67 (peptide)
peptide: VYCGPEFDESVGCM
modifications: cysteine pairing not given here; also: biotinylated, site not given here
notes: mask peptide for the CD3 scFv
B16: Peptide-72 (peptide)
peptide: AYCGPEFDESVGCM
modifications: cysteine pairing not given here; also: biotinylated, site not given here
notes: mask peptide for the CD3 scFv

Columns and labels:
[1] = target: T1, Human TROP2 ECD (31-274 AA), biotinylated (human, UniProt P09758 31-274, biotinylated (site not stated)); assay: ELISA on immobilized TROP2
T1 construct: also called tumor-associated calcium signal transducer 2; Human TROP2-biotin
T1 sequence: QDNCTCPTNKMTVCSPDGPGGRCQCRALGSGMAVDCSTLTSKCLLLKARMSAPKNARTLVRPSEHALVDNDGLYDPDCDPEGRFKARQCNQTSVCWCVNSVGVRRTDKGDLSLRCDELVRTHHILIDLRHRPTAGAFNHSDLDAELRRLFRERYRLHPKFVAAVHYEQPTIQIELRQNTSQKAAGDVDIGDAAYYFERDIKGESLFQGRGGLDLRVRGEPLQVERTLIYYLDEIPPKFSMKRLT

[2] = target: T1, Human TROP2 ECD (31-274 AA), …; assay: ELISA, ratio of EC50 to that of TBD-1 wt
[3] = target: T1, Human TROP2 ECD (31-274 AA), …; assay: ELISA, biotinylated TROP2 ECD on neutravidin plate, Fab titrated
[4] = target: T1, Human TROP2 ECD (31-274 AA), …; assay: BLI (Octet), dissociation half-life from biotinylated human TROP2 ECD
[5] = target: T1, Human TROP2 ECD (31-274 AA), …; assay: BLI (Octet), biotinylated human TROP2 ECD on SAX sensor, Fab 6.25-50 nM
[6] = target: T1, Human TROP2 ECD (31-274 AA), …; assay: ELISA: biotinylated TROP2 captured on neutravidin plate, Fab titrated, HRP secondary antibody
[7] = target: T1, Human TROP2 ECD (31-274 AA), …; assay: ELISA, biotinylated TROP2 ECD on neutravidin plate, Fab titrated; remark: listed apart in the source
[8] = target: T1, Human TROP2 ECD (31-274 AA), …; assay: ELISA: biotinylated TROP2 captured on neutravidin plate, Fab titrated, HRP secondary antibody; remark: listed apart in the source
[9] = target: T2, TCE-10 (anti-CD3 scFv R100A; anti-TROP2 wt); assay: competition ELISA, TCE on captured CD3
T2 construct: scFv on the Fab heavy chain; also called TCE-10 (R100A)

[10] = target: T3, TCE-11 (anti-CD3 scFv H101A; anti-TROP2 wt); assay: competition ELISA, TCE on captured CD3
T3 construct: scFv on the Fab heavy chain; also called TCE-11 (H101A)

[11] = target: T4, TCE-13 (anti-CD3 scFv N103A; anti-TROP2 wt); assay: competition ELISA, TCE on captured CD3
T4 construct: scFv on the Fab heavy chain; also called TCE-13 (N103A)

[12] = target: T5, TCE-14 (anti-CD3 scFv F104A; anti-TROP2 wt); assay: competition ELISA, TCE on captured CD3
T5 construct: scFv on the Fab heavy chain; also called TCE-14 (F104A)

[13] = target: T6, TCE-20 (anti-CD3 scFv S110A; anti-TROP2 wt); assay: competition ELISA, TCE on captured CD3
T6 construct: scFv on the Fab heavy chain; also called TCE-20 (S110A)

[14] = target: T7, TCE-31 (anti-CD3 scFv W238A; anti-TROP2 wt); assay: competition ELISA, TCE on captured CD3
T7 construct: scFv on the Fab heavy chain; also called TCE-31 (W238A)

[15] = target: T8, TCE-33 (anti-CD3 scFv F240A; anti-TROP2 wt); assay: competition ELISA, TCE on captured CD3
T8 construct: scFv on the Fab heavy chain; also called TCE-33 (F240A)

[16] = target: T9, TCE-1 (anti-CD3 scFv wt; anti-TROP2 Fab wt); assay: competition ELISA: peptide titrated and pre-incubated with a constant concentration of TCE-1, binding of TCE-1 to plate-bound biotinylated CD3 detected
T9 construct: anti-CD3 scFv fused to the N-terminus of the anti-TROP2 Fab heavy chain; also called TCE-1 (wt)

[17] = target: T10, TCE-22 (anti-CD3 scFv W112A; anti-TROP2 wt); assay: competition ELISA, TCE on captured CD3
T10 construct: scFv on the Fab heavy chain; also called TCE-22 (W112A)

Binder | Fold shift in EC50 relative to wt [2] | EC50 [3] | t1/2 [4] | Kd [5] | EC50 [6] | IC50 [9] | IC50 [10] | IC50 [11] | IC50 [12] | IC50 [13] | IC50 [15] | also measured
B1 | – | – | – | – | – | – | – | – | – | – | – | EC50 [1]: 194 nM
B2 | – | – | – | – | – | – | – | – | – | – | – | EC50 [1]: 181 nM
B3 | – | – | – | – | – | – | – | – | – | – | – | EC50 [1]: 379 nM
B4 | 23.5 fold | 4.7 nM | 24 min | 10.4 nM | 4.71 nM | – | – | – | – | – | – | –
B5 | 1.5 fold | 0.3 nM | 27 min | 0.7 nM | 0.27 nM | – | – | – | – | – | – | –
B6 | 1.5 fold | 0.3 nM | 28 min | 0.7 nM | 0.29 nM | – | – | – | – | – | – | –
B7 | 1 fold | 0.2 nM | 39 min | 0.6 nM | 0.22 nM | – | – | – | – | – | – | –
B8 | 1 fold | 0.2 nM | 61 min | 0.3 nM | 0.2 nM | – | – | – | – | – | – | –
B9 | 84 fold | 16.8 nM | 5 min | 8.4 nM | 16.8 nM | – | – | – | – | – | – | –
B10 | 1.5 fold | 0.3 nM | 37 min | 0.6 nM | 0.29 nM | – | – | – | – | – | – | –
B11 | – | – | – | – | – | – | – | – | – | – | – | EC50 [7]: 702 nM; EC50 [8]: 702 nM
B12 | – | – | – | – | – | 13000 nM | 2620 nM | 21400 nM | 7090 nM | 721000 nM | 3710 nM | IC50 [14]: 51500 nM; binding result [16]: binds
B13 | – | – | – | – | – | 16100 nM | 1110 nM | 10600 nM | 2470 nM | 86600 nM | 3080 nM | IC50 [17]: 75400 nM; IC50 [14]: 33800 nM; binding result [16]: binds
B14 | – | – | – | – | – | 4740 nM | 2080 nM | 47700 nM | 4210 nM | 120000 nM | 7460 nM | binding result [16]: binds
B15 | – | – | – | – | – | 18600 nM | 2820 nM | 3360 nM | 240 nM | 1320 nM | 1250 nM | IC50 [17]: 38500 nM; IC50 [14]: 21600 nM; binding result [16]: binds
B16 | – | – | – | – | – | 45600 nM | 790 nM | 3960 nM | 320 nM | 3650 nM | 2700 nM | IC50 [17]: 40200 nM; IC50 [14]: 29900 nM; IC50 (read off the curve) [16]: ~300 nM
